Where no end group is shown, it is not given here.
What was measured:
[1] = test system: SCG/ThpNkc mice (ANCA-associated vasculitis model mice); experiment: Therapeutic effects of MMP12 inhibitors on ANCA-associated vasculitis model mice; assay type: in vivo
Experimental: SCG/ThpNkc mice (see Proc Natl Acad Sci USA. 1993 Apr. 15; 90(8): 3413-7.) are ANCA-associated vasculitis model mice created by crossing and interbreeding two strains, MRL/Ipr and BXSB, and can be supplied from Laboratory Animal Resource Bank at the National Institute of Biomedical Innovation, Health and Nutrition (resource number: nbio133).
In this experiment, MMP408 (CAS No. 1258003-93-8), which is an MMP12 selective inhibitor, was administered to male SCG/ThpNkc mice, and the therapeutic effects of MMP408 were examined.
The SCG/ThpNkc mice were reared in cages with normal solid food and water. At weeks of age, it was confirmed that the mice had positive occult blood in their urine. From 11 weeks of age, MMP408 was administered via the intraperitoneal route at a dose of 100 μg twice a week. Urine analysis was performed at 15 and 20 weeks of age, and the mice were sacrificed at 20 weeks of age. The number of mice in an MMP408 non-administration group and the number of mice in an MMP408 administration group were n=25 and n=4, respectively.

h MMP12 = h MMP12 (Homo sapiens, UniProt P39900); experiment: Evaluation of cleavage of candidate peptides by MMP12 (UPLC); assay type: biochemical; settings: for Number of cleavage peaks, Test: UPLC after incubation with h MMP12, 37° C.; for Number of cleavage peaks, Test / Cleavage rate (%) of each candidate peptide by MMP12: 16 hours; for Cleavage rate (%) of each candidate peptide by MMP12: activated h MMP12 2.0 ng/μL mixed 1:1 with 40 μM peptide, 37° C., UPLC peak area before/after, 440 nm; for cleavage rate by MMP12 (in words: low / medium / high) / cleavage site by MMP12: summary of Table 3
Experimental: The evaluation of cleavage of candidate peptides by MMP12 was performed as follows.
On the first day, h MMP12 was diluted to 50 μg/mL with an assay buffer. APMA was added to the h MMP12 solution to adjust the final concentration of APMA to 1 mM, and the solution was incubated at 37° C. for 24 hours to activate h MMP12.
On the second day, activated h MMP12 was diluted to 2 ng/μL (=40 nM) with an assay buffer The substrate (peptide) was diluted to 40 μM with an assay buffer. 50 μL of h MMP12 (2.0 ng/μL) and 50 μL of the substrate (peptide) were mixed and incubated at 37° C. for 16 hours. A blank was prepared by mixing equal volumes of an assay buffer and the substrate (peptide).
On the third day, 100 μL of acetonitrile was added to the mixture from the second day. After centrifugation for 10 minutes, the supernatant was collected, and 10 μL of the supernatant was analyzed using ultra high performance liquid chromatography (UPLC).
UPLC was performed under the conditions of measurement wavelength: 440 nm, flow rate: 0.4 mL/min, A: H2O with 0.1% TFA, B: CH3CN with 0.1% TFA, and elution conditions 10% B→70% B in 9.5 min, and as a result, it was confirmed that the two positive controls were cleaved by MMP12 (data is not shown).
For the candidate peptide Nos, 2, 4 to 7, 11, 15 to 17, 19, 20, and 22, the evaluation of cleavage by MMP12 was performed in the same manner as for the positive controls. Cleavage by MMP12 was confirmed for all the peptides tested. For Nos. 2 and 4 to 7, the cleavage sites were L-Q and L-R/K, but the cleavage rates were different. […] For Nos. 11, 15, 17, 20, and 22, the cleavage site was E-L, but the cleavage rates were different. The cleavage rate of No. 11 was high and the cleavage rate of No. 15 was low even though these candidate peptides have E-L-l. The cleavage rates of Nos. 17, 20, and 22, which have E-L-R, were high.

h MMP12, sequence (P39900 106-470): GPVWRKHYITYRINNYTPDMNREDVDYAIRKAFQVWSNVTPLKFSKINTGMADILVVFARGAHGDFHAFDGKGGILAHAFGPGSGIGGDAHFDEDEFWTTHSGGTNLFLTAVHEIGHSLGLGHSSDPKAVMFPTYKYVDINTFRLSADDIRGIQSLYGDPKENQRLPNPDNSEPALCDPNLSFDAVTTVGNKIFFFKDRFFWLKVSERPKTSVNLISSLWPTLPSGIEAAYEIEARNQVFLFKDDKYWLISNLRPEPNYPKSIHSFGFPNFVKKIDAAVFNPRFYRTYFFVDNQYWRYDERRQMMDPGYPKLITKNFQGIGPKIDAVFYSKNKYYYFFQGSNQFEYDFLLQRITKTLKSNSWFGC

Row | Molecule | urine occult blood ([1]; MMP408 administration group, week 20, FIG. 12 (n=2)) | mice still alive at 20 weeks (survival curve) ([1]; male SCG/ThpNkc mice, MMP408 100 μg intraperitoneal twice a week from 11 weeks of age, n=4, log-rank test p=0.037 vs non-administration group (92% died by 20 weeks)) | Number of cleavage peaks, Test (h MMP12) | Cleavage rate (%) of each candidate peptide by MMP12 (h MMP12) [%] | cleavage rate by MMP12 (in words: low / medium / high) (h MMP12) | cleavage site by MMP12 (h MMP12)
1 | COC(=O)Nc1ccc2oc3cc(S(=O)(=O)N[C@@H](C(=O)O)C(C)C)ccc3c2c1 [MMP408] | improved | 2 out of 4 |  |  |  | 
2 | APIANELRSQSLQT (not fully specified; also: 5-carboxyfluorescein label) [No. 17] |  |  | 1 | 98.6 | high | E-L
3 | APRIKKIVQKKLAG (not fully specified; also: 5-carboxyfluorescein label) [No. 19] |  |  | 1 | 26.0 |  | 
4 | ASVVTELRSQSLQT (not fully specified; also: 5-carboxyfluorescein label) [No. 20] |  |  | 2 | 100.0 | high | E-L
5 | DKVWQDYIKDMKEN [No. 02] |  |  | 1 | 56.0 | medium | 
6 | LNVQRKAIHELIQV (not fully specified; also: 5-carboxyfluorescein label) [No. 11] |  |  | 2 | 100.0 | high | E-L
7 | PAAAVLRELRSVS (not fully specified; also: 5-carboxyfluorescein label) [No. 22] |  |  | 3 | 100.0 | high | E-L
8 | PESSLRKRKRSR (not fully specified; also: 5-carboxyfluorescein label) [No. 16] |  |  | 1 | 61.7 |  | 
9 | RQAFNEKIRVVHQL (not fully specified; also: 5-carboxyfluorescein label) [No. 15] |  |  | 1 | 10.5 | low | E-L
10 | SFSSSRNLQERL (not fully specified; also: 5-carboxyfluorescein label) [No. 06] |  |  | 1 | 90.3 | medium to high | 
11 | SLSFSTNLQKRL (not fully specified; also: 5-carboxyfluorescein label) [No. 04] |  |  | 1 | 53.5 | medium | 
12 | SRNLQERLRRKE (not fully specified; also: 5-carboxyfluorescein label) [No. 05] |  |  | 1 | 38.5 | medium to high | 
13 | STNLQESLRRKE (not fully specified; also: 5-carboxyfluorescein label) [No. 07] |  |  | 2 | 70.4 | medium to high | 
